Source: paper PMC3816987

Key:
[1] = biological target: GST-free tubby-N (tubby N-terminus, 1M-242P) (mouse) (UniProt P50586); assay: phage binding assay
[2] = biological target: GST fusion protein of Tulp1-N (1M-298Q) (mouse) (UniProt Q9Z273); assay: phage binding assay
Sequence of GST fusion protein of Tulp1-N (1M-298Q) (mouse) (Q9Z273 1-298): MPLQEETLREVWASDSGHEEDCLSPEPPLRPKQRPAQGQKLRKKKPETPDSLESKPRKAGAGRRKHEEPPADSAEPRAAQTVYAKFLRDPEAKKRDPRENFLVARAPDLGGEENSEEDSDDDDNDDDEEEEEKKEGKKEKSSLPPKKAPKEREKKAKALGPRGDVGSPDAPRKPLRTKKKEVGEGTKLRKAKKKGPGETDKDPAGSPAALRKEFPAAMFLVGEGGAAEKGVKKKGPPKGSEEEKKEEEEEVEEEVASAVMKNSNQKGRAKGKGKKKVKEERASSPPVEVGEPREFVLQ

Sequence of GST-free tubby-N (tubby N-terminus, 1M-242P) (mouse) (P50586 1-242): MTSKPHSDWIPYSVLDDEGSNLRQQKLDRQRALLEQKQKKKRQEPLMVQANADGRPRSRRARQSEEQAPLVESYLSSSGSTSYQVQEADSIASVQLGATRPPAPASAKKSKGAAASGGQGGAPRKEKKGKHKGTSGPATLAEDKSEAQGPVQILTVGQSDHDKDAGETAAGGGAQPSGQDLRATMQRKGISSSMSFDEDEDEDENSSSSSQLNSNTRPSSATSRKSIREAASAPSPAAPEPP
Sequence of Structure specific recognition protein 1 (Ssrp1) phage clone, 486E-619G (Q08943 2-708): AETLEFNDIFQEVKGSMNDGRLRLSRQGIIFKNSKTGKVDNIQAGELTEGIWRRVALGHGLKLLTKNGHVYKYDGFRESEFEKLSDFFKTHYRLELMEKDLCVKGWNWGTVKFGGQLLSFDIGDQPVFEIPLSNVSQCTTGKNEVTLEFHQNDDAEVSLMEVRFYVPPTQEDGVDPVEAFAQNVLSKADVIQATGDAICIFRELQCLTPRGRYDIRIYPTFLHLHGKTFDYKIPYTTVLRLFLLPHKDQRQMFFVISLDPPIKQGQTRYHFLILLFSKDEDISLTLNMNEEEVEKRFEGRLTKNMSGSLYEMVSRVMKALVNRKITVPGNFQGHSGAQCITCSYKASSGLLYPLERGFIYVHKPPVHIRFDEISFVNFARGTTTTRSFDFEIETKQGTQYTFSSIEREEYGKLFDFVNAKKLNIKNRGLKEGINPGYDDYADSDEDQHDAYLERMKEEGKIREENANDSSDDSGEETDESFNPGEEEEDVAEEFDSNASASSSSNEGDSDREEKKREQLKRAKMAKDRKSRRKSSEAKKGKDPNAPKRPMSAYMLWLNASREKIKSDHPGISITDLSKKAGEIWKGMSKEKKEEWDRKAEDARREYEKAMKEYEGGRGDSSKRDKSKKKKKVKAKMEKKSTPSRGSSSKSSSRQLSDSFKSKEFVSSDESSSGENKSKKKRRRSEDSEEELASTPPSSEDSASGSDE
Sequence of High mobility group (Hmg) box 2 (Hmgb2) phage clone, 89K-188E (P30681 whole entry, the tested form may be a part): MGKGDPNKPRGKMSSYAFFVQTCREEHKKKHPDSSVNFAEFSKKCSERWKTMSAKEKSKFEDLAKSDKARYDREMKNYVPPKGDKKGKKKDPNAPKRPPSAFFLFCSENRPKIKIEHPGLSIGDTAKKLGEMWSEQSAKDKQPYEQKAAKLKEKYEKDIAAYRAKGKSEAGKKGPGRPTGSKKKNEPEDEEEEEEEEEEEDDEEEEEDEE
Sequence of ATP-binding cassette F1 (Abcf1) phage clone, 57K-196G (Q6P542 whole entry, the tested form may be a part): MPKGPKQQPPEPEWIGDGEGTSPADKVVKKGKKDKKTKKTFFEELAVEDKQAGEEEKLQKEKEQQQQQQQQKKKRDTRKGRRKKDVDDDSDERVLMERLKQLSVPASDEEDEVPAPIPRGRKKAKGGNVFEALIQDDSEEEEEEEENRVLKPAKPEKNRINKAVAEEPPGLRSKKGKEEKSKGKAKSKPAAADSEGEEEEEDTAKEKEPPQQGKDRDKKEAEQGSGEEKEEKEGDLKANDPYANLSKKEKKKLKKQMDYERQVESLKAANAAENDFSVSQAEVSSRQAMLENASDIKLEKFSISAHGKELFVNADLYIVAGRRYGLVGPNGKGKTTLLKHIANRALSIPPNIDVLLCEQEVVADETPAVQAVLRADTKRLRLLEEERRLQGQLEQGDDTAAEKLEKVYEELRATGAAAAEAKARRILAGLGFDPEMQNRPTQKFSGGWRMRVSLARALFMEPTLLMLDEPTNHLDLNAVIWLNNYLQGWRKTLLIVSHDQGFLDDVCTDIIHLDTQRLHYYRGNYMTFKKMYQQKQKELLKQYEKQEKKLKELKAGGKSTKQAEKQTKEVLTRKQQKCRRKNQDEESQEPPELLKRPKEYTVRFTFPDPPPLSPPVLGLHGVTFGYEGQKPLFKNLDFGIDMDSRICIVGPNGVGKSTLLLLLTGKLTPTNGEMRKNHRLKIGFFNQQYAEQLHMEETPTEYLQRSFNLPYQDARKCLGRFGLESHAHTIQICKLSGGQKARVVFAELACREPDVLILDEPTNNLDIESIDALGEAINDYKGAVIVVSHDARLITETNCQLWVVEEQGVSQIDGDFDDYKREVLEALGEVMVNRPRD
Sequence of Zinc finger E-box binding homeobox 1 (Zeb1) phage clone, 903E-1021E (Q64318 whole entry, the tested form may be a part): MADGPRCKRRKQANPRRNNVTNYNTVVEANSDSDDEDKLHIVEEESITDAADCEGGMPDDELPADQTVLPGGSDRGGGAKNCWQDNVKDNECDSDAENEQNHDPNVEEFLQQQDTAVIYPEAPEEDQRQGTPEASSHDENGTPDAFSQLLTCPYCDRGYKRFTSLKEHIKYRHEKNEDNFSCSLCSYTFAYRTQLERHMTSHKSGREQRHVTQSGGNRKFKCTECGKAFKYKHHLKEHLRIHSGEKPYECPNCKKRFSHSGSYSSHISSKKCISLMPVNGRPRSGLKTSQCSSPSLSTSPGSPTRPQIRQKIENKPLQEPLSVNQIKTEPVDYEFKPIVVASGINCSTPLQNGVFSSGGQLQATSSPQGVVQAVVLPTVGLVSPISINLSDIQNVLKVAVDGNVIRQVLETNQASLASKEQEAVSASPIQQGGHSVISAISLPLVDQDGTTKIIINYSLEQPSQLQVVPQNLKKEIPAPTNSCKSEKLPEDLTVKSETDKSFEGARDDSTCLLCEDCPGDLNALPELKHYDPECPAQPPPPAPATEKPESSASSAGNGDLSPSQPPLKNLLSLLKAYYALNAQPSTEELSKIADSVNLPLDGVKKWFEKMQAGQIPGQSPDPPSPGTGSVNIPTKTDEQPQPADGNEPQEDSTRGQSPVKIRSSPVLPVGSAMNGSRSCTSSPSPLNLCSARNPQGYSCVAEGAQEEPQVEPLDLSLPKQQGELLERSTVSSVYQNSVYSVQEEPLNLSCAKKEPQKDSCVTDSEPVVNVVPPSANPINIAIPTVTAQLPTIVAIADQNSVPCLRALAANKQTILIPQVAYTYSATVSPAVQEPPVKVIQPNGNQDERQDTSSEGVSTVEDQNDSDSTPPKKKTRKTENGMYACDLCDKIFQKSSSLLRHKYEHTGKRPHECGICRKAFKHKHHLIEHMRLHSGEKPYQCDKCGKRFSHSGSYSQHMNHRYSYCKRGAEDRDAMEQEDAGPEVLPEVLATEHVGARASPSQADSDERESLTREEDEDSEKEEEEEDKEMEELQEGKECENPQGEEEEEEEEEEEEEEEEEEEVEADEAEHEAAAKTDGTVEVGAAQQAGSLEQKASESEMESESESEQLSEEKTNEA
Sequence of Zinc finger protein 609 (Zfp609) phage clone, 1M-183E (domain or fragment) (Q8BZ47 whole entry, the tested form may be a part): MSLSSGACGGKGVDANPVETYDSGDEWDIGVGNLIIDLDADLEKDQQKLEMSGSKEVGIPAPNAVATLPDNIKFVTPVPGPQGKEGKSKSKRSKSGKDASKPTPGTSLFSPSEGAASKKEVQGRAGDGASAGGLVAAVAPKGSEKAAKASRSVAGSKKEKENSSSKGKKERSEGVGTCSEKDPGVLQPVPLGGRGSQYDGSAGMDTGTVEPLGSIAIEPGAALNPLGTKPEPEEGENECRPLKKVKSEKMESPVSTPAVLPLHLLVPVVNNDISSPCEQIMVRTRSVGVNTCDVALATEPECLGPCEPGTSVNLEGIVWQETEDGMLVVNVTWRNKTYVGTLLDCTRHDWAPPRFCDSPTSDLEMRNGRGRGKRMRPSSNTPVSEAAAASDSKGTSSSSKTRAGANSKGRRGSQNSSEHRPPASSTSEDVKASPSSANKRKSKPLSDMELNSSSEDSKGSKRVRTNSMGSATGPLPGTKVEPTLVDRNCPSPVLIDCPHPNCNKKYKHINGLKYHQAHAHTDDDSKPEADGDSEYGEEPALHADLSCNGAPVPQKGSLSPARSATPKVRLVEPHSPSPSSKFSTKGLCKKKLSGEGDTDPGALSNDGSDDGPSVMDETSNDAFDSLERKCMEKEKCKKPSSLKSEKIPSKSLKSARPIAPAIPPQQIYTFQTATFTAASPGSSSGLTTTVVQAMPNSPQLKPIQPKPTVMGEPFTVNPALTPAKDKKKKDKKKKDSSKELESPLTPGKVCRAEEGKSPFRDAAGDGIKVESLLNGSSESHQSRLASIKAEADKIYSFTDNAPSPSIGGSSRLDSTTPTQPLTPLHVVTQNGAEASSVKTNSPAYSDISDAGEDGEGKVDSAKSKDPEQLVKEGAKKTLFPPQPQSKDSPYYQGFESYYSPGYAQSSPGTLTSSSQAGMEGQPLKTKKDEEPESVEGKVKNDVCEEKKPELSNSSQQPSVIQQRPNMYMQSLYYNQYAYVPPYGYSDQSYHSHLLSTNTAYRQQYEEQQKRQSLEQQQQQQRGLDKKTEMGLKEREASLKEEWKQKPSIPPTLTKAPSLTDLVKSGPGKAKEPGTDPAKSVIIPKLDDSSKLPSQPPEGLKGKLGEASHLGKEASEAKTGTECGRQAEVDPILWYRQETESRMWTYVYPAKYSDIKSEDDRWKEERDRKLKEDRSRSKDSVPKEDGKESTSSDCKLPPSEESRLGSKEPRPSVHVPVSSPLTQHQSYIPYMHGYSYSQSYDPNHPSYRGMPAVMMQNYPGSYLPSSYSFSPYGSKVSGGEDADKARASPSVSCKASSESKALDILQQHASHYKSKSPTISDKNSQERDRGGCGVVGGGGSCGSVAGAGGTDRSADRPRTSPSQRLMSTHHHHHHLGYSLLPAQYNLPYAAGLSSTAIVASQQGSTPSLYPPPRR
Sequence of Hmg. nucleosomal binding domain 1 (Hmgn1) phage clone, 1M-49K (P18608 2-96): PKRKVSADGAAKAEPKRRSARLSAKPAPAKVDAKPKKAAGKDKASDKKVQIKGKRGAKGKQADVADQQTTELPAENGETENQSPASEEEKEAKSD

Substance: ATP-binding cassette F1 (Abcf1) phage clone, 57K-196G (from UniProt Q6P542 57-196) (domain or fragment)
- binding specificity, clonal phage vs. control phage [1]: 68.2 X
- binding specificity, clonal phage vs. control phage [2]: 33.4 X

Substance: Armadillo repeat containing, X-linked 4 phage clone, 419S-587N (domain or fragment)
- binding specificity, clonal phage vs. control phage [1]: 40.1 X

Substance: High mobility group (Hmg) box 2 (Hmgb2) phage clone, 89K-188E (from UniProt P30681 89-188) (domain or fragment)
- binding specificity, clonal phage vs. control phage [1]: 312 X
- binding specificity, clonal phage vs. control phage [2]: 55.2 X

Substance: Hmg. box 2-like 1 (Hmgb2l1) phage clone, 170K-305G (domain or fragment)
- binding specificity, clonal phage vs. control phage [1]: 29.8 X

Substance: Hmg. nucleosomal binding domain 1 (Hmgn1) phage clone, 1M-49K (from UniProt P18608 1-49) (domain or fragment)
- binding specificity, clonal phage vs. control phage [1]: 61.4 X

Substance: Microtubule-associated protein 7 (Mtap7) phage clone, 23A-114R (from UniProt O88735 23-114) (domain or fragment)
- binding specificity, clonal phage vs. control phage [1]: 3.5 X

Substance: PC4 and SFRS1 interacting protein 1 (Psip1) phage clone, 152K-219K (from UniProt Q99JF8-1 152-219) (domain or fragment)
- binding specificity, clonal phage vs. control phage [1]: 196 X
- binding specificity, clonal phage vs. control phage [2]: 24.1 X

Substance: Structure specific recognition protein 1 (Ssrp1) phage clone, 486E-619G (from UniProt Q08943-1 486-619) (domain or fragment)
- binding specificity, clonal phage vs. control phage [1]: 157 X
- binding specificity, clonal phage vs. control phage [2]: 39.7 X

Substance: Zinc finger E-box binding homeobox 1 (Zeb1) phage clone, 903E-1021E (from UniProt Q64318 903-1021) (domain or fragment)
- binding specificity, clonal phage vs. control phage [1]: 284 X
- binding specificity, clonal phage vs. control phage [2]: 56.7 X

Substance: Zinc finger protein 609 (Zfp609) phage clone, 1M-183E (domain or fragment)
- binding specificity, clonal phage vs. control phage [1]: 53.2 X
